Measured values published in patent US5691166.

Key:
[1] = target: growth hormone releasing factor (recombinantly synthesized as described in EP 206783)
[2] = target: epidermal growth factor (recombinantly synthesized molecule consisting of the first 52 amino acids of the authentic 53 amino acid EGF molecule)
[3] = target: acid-denatured hemoglobin

intact peptide remaining after 4 h incubation in broth (reverse phase HPLC) [1] [% intact] | intact peptide remaining after 8 h incubation in broth (reverse phase HPLC) [2] [% intact] | Substance | proteinase A activity, ΔOD/µg protein (release of amino acids from acid-denatured hemoglobin, 90 min) (ΔOD/µg protein) [3]
> 60 | > 90 | proteolytic activity of the cell-free broth from the one-liter fermentation of the pep4 P. pastoris strain p13 | 
 |  | Saccharomyces cerevisiae proteinase A (encoded by the S. cerevisiae PEP4 gene) (from UniProt P07267) (enzyme) | 28.1
 |  | Pichia pastoris proteinase A (product of the Pichia PEP4 gene) (enzyme) | 13.1
< 10 | < 10 | proteolytic activity of the cell-free broth from a one-liter fermentation of the HIS4 PEP4 P. pastoris strain G+PAO804H2 | 
